Reference: publication PMC6555819, “Comprehensive study of nuclear receptor DNA binding provides a revised framework for understanding receptor specificity”
Residue numbers refer to the chain shown, from its start.

B1: NRC3_wobSeed26_DR1_C22A_o1 (dsDNA)
DNA 1: GCTCTAGTTGGTCAAAGGTCAAACACTCGAAATGCGGCGATTGACAGCGTAGAATGAAGG
DNA 2: CCTTCATTCTACGCTGTCAATCGCCGCATTTCGAGTGTTTGACCTTTGACCAACTAGAGC
B2: NRC3_wobSeed120_DR4_G7A_o1 (dsDNA)
DNA 1: GCCCGAATAGGTTACGAGGGGGCATTCAGTGCGAATGCGATTGACAGCGTAGAATGAAGG
DNA 2: CCTTCATTCTACGCTGTCAATCGCATTCGCACTGAATGCCCCCTCGTAACCTATTCGGGC
B3: NRC3_wobSeed113_DR4_T17G_o1 (dsDNA)
DNA 1: GCATATGTAGGTTAGCGGGGGTCATTCAGACTAGGCGCGATTGACAGCGTAGAATGAAGG
DNA 2: CCTTCATTCTACGCTGTCAATCGCGCCTAGTCTGAATGACCCCCGCTAACCTACATATGC
B4: NRC3_wobSeed25_DR1_A5C_o1 (dsDNA)
DNA 1: GCCACACTAGGTCAAAGGTCAAAGTCGAGCCAACCAGCGATTGACAGCGTAGAATGAAGG
DNA 2: CCTTCATTCTACGCTGTCAATCGCTGGTTGGCTCGACTTTGACCTTTGACCTAGTGTGGC
B5: NRC3_wobSeed17_DR0_A14G_o1 (dsDNA)
DNA 1: GCATATGTAGGTTGGGGTCATTCAGAAAGTAGGGAAGCGATTGACAGCGTAGAATGAAGG
DNA 2: CCTTCATTCTACGCTGTCAATCGCTTCCCTACTTTCTGAATGACCCCAACCTACATATGC
B6: NRC3_wobSeed72_DR2_T13C_o1 (dsDNA)
DNA 1: GCTCGAGTAGGTCACGGGGGCATTCAGGGATGAAGAGCGATTGACAGCGTAGAATGAAGG
DNA 2: CCTTCATTCTACGCTGTCAATCGCTCTTCATCCCTGAATGCCCCCGTGACCTACTCGAGC
B7: NRC3_wobSeed72_DR2_A6T_o1 (dsDNA)
DNA 1: B6 DNA 1 with A6T, C13T
DNA 2: B6 DNA 2 with G48A, T55A
B8: NRC3_wobSeed89_DR3_A15G_o1 (dsDNA)
DNA 1: GCCTATGTAGGTTAGGGGGGTCATTCAGTTTGAAAGGCGATTGACAGCGTAGAATGAAGG
DNA 2: CCTTCATTCTACGCTGTCAATCGCCTTTCAAACTGAATGACCCCCCTAACCTACATAGGC
B9: NRC3_wobSeed89_DR3_A9G_o1 (dsDNA)
DNA 1: B8 DNA 1 with A9G, G15A
DNA 2: B8 DNA 2 with C46T, T52C
B10: NRC3_wobSeed89_DR3_A15C_o1 (dsDNA)
DNA 1: B8 DNA 1 with G15C
DNA 2: B8 DNA 2 with C46G
B11: NRC3_wobSeed74_DR3_A18G_o1 (dsDNA)
DNA 1: GCTCTAGTTGGTCACGGGGGTCACACACGACGGGTAGCGATTGACAGCGTAGAATGAAGG
DNA 2: CCTTCATTCTACGCTGTCAATCGCTACCCGTCGTGTGTGACCCCCGTGACCAACTAGAGC
B12: NRC3_wobSeed49_DR2_C7A_o1 (dsDNA)
DNA 1: GCCAAAATAGGTCAAGAGGTCAAAGTCCGCTTCCCGGCGATTGACAGCGTAGAATGAAGG
DNA 2: CCTTCATTCTACGCTGTCAATCGCCGGGAAGCGGACTTTGACCTCTTGACCTATTTTGGC
B13: NRC3_random_hg19_27_o1 (dsDNA)
DNA 1: GCTCCCTGCCCAGTTCTGTGCAGGGTGTGCGTGTCTGCGATTGACAGCGTAGAATGAAGG
DNA 2: CCTTCATTCTACGCTGTCAATCGCAGACACGCACACCCTGCACAGAACTGGGCAGGGAGC
B14: NRC3_random_hg19_171_o1 (dsDNA)
DNA 1: GCGGGCTACTGCCTAGGGTGCCTTGGCACAGCCAGCGCGATTGACAGCGTAGAATGAAGG
DNA 2: CCTTCATTCTACGCTGTCAATCGCGCTGGCTGTGCCAAGGCACCCTAGGCAGTAGCCCGC
B15: NRC3_random_hg19_209_o1 (dsDNA)
DNA 1: GCGAGTTTCCAGCAGATGGCCATCACAACAATACTGGCGATTGACAGCGTAGAATGAAGG
DNA 2: CCTTCATTCTACGCTGTCAATCGCCAGTATTGTTGTGATGGCCATCTGCTGGAAACTCGC
B16: NRC3_wobSeed77_DR3_C8A_o1 (dsDNA)
DNA 1: GCACTTAAGGGTCAACGAGGTTATAGCACGCGTATAGCGATTGACAGCGTAGAATGAAGG
DNA 2: CCTTCATTCTACGCTGTCAATCGCTATACGCGTGCTATAACCTCGTTGACCCTTAAGTGC
B17: NRC3_random_hg19_381_o1 (dsDNA)
DNA 1: GCCATGAGCGTGGAATGTTCTTCCATTTGTTCATATGCGATTGACAGCGTAGAATGAAGG
DNA 2: CCTTCATTCTACGCTGTCAATCGCATATGAACAAATGGAAGAACATTCCACGCTCATGGC
B18: NRC3_random_hg19_309_o1 (dsDNA)
DNA 1: GCCTTAGCTGGGATCTTATCTGTACAGTATCTGGGAGCGATTGACAGCGTAGAATGAAGG
DNA 2: CCTTCATTCTACGCTGTCAATCGCTCCCAGATACTGTACAGATAAGATCCCAGCTAAGGC
B19: NRC3_random_hg19_54_o1 (dsDNA)
DNA 1: GCAGGTAATGTATTCACAGGTTCTGGGACGTCATTGGCGATTGACAGCGTAGAATGAAGG
DNA 2: CCTTCATTCTACGCTGTCAATCGCCAATGACGTCCCAGAACCTGTGAATACATTACCTGC
B20: NRC3_random_hg19_418_o1 (dsDNA)
DNA 1: GCTGTGAGCATCACTTCTTGTTGGTCAGAGTAAGAGGCGATTGACAGCGTAGAATGAAGG
DNA 2: CCTTCATTCTACGCTGTCAATCGCCTCTTACTCTGACCAACAAGAAGTGATGCTCACAGC
B21: NRC3_random_hg19_130_o1 (dsDNA)
DNA 1: GCGAGATCAAGACCATCCTGGCTAACATGGTGAAACGCGATTGACAGCGTAGAATGAAGG
DNA 2: CCTTCATTCTACGCTGTCAATCGCGTTTCACCATGTTAGCCAGGATGGTCTTGATCTCGC
B22: NRC3_wobSeed50_DR2_T20C_o1 (dsDNA)
DNA 1: GCCCTAGTTGGTCAGGAGGCCACACACCGGATATGAGCGATTGACAGCGTAGAATGAAGG
DNA 2: CCTTCATTCTACGCTGTCAATCGCTCATATCCGGTGTGTGGCCTCCTGACCAACTAGGGC
B23: NRC3_wobSeed124_DR5_o1 (dsDNA)
DNA 1: GCCCTACTGGGCCATTCAGAGGTCATTGATCATATGGCGATTGACAGCGTAGAATGAAGG
DNA 2: CCTTCATTCTACGCTGTCAATCGCCATATGATCAATGACCTCTGAATGGCCCAGTAGGGC

Molecular target: LXRb:RXRa (Homo sapiens, UniProt P55055;P19793 full;full)
Test: no ligand; PBM; 270 nM : 90 nM RXRa; PBS pH 7.4, 2% milk, 0.02% Triton X-100, 1 mM DTT, BSA, 0.4 mg/ml salmon testes DNA
Details: tags: His kept;His cleaved; copies: 1;1; label: surface-attached array probe
How it was run: (§1)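 Antibodies against each partner of ligand-free nuclear receptor dimers (one per run) detected binding on custom Agilent 4×180K protein-binding microarrays after 1 h incubation. The double-stranded probes had 34-nt variable regions carrying direct-repeat seeds, single-nucleotide variants, half-site ablations and random human genomic background sequences. Binding z-scores, from regression-normalized fluorescence, use the random background probes as reference.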

LXRb:RXRa, sequence (P55055 whole entry, chain 1 of 2): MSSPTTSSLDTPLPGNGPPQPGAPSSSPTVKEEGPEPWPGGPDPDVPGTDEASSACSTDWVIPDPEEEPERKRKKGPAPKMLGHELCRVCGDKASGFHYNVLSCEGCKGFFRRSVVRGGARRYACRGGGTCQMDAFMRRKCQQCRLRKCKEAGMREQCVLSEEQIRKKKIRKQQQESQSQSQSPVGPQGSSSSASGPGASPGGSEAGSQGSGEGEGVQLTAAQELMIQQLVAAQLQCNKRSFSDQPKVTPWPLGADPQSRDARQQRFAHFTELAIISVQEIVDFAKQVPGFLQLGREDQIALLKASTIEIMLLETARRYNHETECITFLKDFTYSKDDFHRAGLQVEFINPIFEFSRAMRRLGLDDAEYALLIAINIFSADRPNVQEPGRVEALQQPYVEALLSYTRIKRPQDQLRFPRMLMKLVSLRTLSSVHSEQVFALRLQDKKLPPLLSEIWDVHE
LXRb:RXRa, sequence (P19793 whole entry, chain 2 of 2): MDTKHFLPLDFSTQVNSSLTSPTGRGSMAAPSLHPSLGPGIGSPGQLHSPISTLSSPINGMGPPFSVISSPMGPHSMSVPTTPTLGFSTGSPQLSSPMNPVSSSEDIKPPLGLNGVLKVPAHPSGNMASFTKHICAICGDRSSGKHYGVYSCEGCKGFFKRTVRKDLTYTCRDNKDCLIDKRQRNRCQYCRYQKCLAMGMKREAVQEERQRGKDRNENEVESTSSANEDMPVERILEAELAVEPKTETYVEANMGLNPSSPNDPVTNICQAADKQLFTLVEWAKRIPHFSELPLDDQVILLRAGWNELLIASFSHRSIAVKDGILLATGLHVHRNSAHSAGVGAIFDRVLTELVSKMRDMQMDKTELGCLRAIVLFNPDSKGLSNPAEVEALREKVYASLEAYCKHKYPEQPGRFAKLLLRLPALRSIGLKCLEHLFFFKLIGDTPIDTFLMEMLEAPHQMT

Row | Binder | binding signal
1 | B1 | 6.26 PBM z-score against 500 random probes
2 | B2 | 7.24 PBM z-score against 500 random probes
3 | B3 | 6.23 PBM z-score against 500 random probes
4 | B4 | 7.56 PBM z-score against 500 random probes
5 | B5 | 6.29 PBM z-score against 500 random probes
6 | B6 | 6.37 PBM z-score against 500 random probes
7 | B7 | 6.12 PBM z-score against 500 random probes
8 | B8 | 7.36 PBM z-score against 500 random probes
9 | B9 | 6.72 PBM z-score against 500 random probes
10 | B10 | 6.78 PBM z-score against 500 random probes
11 | B11 | 6.39 PBM z-score against 500 random probes
12 | B12 | 6.19 PBM z-score against 500 random probes

Molecular target: FXR:RXRa (Homo sapiens, UniProt Q96RI1;P19793 full;full)
Test: as above
Details: tags: His kept;His cleaved; copies: 1;1; label: surface-attached array probe
How it was run: as §1

FXR:RXRa, sequence (Q96RI1 whole entry, chain 1 of 2): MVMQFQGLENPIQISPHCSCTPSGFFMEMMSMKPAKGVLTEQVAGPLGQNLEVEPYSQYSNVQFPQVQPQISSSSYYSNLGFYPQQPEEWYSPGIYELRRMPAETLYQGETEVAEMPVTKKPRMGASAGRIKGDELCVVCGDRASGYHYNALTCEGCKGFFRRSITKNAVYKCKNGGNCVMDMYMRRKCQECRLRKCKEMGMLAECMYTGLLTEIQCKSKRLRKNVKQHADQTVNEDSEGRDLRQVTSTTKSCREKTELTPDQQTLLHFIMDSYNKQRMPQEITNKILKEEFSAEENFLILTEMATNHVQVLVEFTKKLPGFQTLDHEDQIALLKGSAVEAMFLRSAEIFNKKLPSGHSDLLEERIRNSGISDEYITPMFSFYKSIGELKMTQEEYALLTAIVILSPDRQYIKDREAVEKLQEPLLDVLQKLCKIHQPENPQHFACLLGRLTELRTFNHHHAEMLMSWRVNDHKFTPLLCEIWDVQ
FXR:RXRa, sequence (P19793 whole entry, chain 2 of 2): as the sequence (P19793 whole entry, chain 2 of 2) above

Row | Binder | binding signal
13 | B13 | -0.32 PBM z-score against 500 random probes
14 | B14 | -2.74 PBM z-score against 500 random probes
15 | B15 | -0.37 PBM z-score against 500 random probes
16 | B16 | 7.94 PBM z-score against 500 random probes
17 | B17 | -0.07 PBM z-score against 500 random probes

Molecular target: RARg:RXRa (Homo sapiens, UniProt P13631;P19793 full;full)
Test: as above
Details: tags: His kept;His cleaved; copies: 1;1; label: surface-attached array probe
How it was run: as §1

RARg:RXRa, sequence (P13631 whole entry, chain 1 of 2): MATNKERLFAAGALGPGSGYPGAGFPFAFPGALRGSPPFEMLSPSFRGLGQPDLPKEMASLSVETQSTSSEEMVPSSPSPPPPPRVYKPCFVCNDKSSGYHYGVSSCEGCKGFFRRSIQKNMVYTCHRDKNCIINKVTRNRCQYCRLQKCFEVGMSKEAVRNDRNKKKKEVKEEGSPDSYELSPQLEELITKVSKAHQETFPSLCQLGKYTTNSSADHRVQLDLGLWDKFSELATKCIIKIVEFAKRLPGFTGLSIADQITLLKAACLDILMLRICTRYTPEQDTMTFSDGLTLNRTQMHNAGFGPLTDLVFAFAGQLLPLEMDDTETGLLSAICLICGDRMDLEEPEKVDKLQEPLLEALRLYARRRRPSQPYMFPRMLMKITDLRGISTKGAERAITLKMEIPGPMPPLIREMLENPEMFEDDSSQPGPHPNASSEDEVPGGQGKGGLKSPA
RARg:RXRa, sequence (P19793 whole entry, chain 2 of 2): as the sequence (P19793 whole entry, chain 2 of 2) above

Row | Binder | binding signal
18 | B18 | -0.47 PBM z-score against 500 random probes
19 | B19 | -0.18 PBM z-score against 500 random probes
20 | B17 | -0.62 PBM z-score against 500 random probes

Molecular target: VDR:RXRa (Homo sapiens, UniProt P11473;P19793 full;full)
Test: as above
Details: tags: His kept;His cleaved; copies: 1;1; label: surface-attached array probe
How it was run: as §1

VDR:RXRa, sequence (P11473 whole entry, chain 1 of 2): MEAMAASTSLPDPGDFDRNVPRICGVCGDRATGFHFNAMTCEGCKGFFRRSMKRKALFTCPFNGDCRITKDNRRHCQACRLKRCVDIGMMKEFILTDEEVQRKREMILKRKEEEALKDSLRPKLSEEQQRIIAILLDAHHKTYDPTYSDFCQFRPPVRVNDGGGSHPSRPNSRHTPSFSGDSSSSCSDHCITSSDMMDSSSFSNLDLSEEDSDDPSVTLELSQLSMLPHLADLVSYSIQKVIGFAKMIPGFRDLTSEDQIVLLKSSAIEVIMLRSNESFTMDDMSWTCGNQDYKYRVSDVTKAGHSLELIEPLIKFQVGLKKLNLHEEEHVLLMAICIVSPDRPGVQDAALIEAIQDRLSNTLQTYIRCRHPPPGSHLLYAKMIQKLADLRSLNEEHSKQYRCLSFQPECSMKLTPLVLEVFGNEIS
VDR:RXRa, sequence (P19793 whole entry, chain 2 of 2): as the sequence (P19793 whole entry, chain 2 of 2) above

Row | Binder | binding signal
21 | B13 | -0.37 PBM z-score against 500 random probes
22 | B20 | -0.69 PBM z-score against 500 random probes
23 | B21 | -0.35 PBM z-score against 500 random probes
24 | B22 | 0.33 PBM z-score against 500 random probes
25 | B18 | -0.57 PBM z-score against 500 random probes
26 | B14 | -0.96 PBM z-score against 500 random probes
27 | B23 | 3.94 PBM z-score against 500 random probes
28 | B15 | -0.22 PBM z-score against 500 random probes
29 | B19 | -0.18 PBM z-score against 500 random probes
30 | B16 | 8.17 PBM z-score against 500 random probes
31 | B17 | -0.43 PBM z-score against 500 random probes

Molecular target: RARb:RXRa (Homo sapiens, UniProt P10826;P19793 full;full)
Test: as above
Details: tags: His kept;His cleaved; copies: 1;1; label: surface-attached array probe
How it was run: as §1

RARb:RXRa, sequence (P10826 whole entry, chain 1 of 2): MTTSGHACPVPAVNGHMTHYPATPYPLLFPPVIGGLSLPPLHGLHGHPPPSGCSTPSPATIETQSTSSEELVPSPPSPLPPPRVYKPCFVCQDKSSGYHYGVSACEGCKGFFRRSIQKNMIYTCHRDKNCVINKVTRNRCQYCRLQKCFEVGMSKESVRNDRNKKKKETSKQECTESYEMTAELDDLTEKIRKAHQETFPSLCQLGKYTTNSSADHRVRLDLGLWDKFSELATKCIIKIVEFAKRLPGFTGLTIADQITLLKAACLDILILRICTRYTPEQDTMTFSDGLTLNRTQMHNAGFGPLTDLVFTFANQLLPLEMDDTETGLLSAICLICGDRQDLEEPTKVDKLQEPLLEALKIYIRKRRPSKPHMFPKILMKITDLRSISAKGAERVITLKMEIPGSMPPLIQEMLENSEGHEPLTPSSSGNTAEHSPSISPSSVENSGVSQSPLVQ
RARb:RXRa, sequence (P19793 whole entry, chain 2 of 2): as the sequence (P19793 whole entry, chain 2 of 2) above

Row | Binder | binding signal
32 | B13 | -0.46 PBM z-score against 500 random probes
33 | B20 | -0.39 PBM z-score against 500 random probes
34 | B18 | -0.66 PBM z-score against 500 random probes
35 | B14 | -0.98 PBM z-score against 500 random probes
36 | B23 | 3.04 PBM z-score against 500 random probes
37 | B17 | -0.87 PBM z-score against 500 random probes

Molecular target: RXRa (Homo sapiens, UniProt P19793)
Test: no ligand; PBM; 180 nM; PBS pH 7.4, 2% milk, 0.02% Triton X-100, 1 mM DTT, BSA, 0.4 mg/ml salmon testes DNA
Details: tags: His cleaved; chain copies: 2; label: surface-attached array probe

RXRa, sequence (P19793 whole entry): as the sequence (P19793 whole entry, chain 2 of 2) above

Row | Binder | binding signal
38 | B21 | -0.18 PBM z-score against 500 random probes
39 | B22 | 0.4 PBM z-score against 500 random probes
40 | B18 | -0.37 PBM z-score against 500 random probes
41 | B14 | -0.92 PBM z-score against 500 random probes
42 | B15 | -0.14 PBM z-score against 500 random probes
43 | B19 | -0.06 PBM z-score against 500 random probes
